From PMC8564539

Assays:
Test in all cases: AlphaScreen or HTRF; ALPHA: FLAG-tagged domain mixed with biotin-tagged domain (cell-free translation mixtures), streptavidin donor beads, anti-DYKDDDDK antibody with protein A acceptor beads; 100 mM Tris-HCl pH 8.0, 0.01% Tween 20, 1 mg/mL BSA; 25 °C, 24 h; median of duplicate reactions
CASP1_CARD (human) = CASP1_CARD (human) (UniProt P29466)
NLRC4_CARD (human) = NLRC4_CARD (human) (UniProt Q9NPP4)
ASC_PYD-CARD (human) = ASC_PYD-CARD (human) (UniProt Q9ULZ3)
Chain of ASC_PYD-CARD (human) (Q9ULZ3 whole entry): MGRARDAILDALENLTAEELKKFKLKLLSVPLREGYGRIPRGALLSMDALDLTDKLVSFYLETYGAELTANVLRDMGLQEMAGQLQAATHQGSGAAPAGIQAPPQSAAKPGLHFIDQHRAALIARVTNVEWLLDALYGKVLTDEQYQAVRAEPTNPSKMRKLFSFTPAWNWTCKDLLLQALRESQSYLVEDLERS

IRAK3_DD (human) = IRAK3_DD (human) (UniProt Q9Y616)
Chain of IRAK3_DD (human) (Q9Y616 whole entry): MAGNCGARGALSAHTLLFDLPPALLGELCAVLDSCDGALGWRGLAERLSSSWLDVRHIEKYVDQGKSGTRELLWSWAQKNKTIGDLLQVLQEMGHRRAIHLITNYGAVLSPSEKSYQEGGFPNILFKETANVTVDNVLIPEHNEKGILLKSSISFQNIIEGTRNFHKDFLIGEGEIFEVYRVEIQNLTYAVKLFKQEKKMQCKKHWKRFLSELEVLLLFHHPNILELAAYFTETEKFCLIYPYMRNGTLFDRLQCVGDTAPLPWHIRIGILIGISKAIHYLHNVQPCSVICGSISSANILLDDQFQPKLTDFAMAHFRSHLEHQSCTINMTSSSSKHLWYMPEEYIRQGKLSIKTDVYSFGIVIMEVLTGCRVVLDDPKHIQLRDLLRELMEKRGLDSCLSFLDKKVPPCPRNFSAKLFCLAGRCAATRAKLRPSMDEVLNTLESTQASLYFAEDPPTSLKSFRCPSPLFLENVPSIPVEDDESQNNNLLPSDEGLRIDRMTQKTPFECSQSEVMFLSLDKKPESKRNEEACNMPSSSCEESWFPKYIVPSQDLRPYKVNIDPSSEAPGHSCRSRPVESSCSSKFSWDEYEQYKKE

FADD_DED-DD (human) = FADD_DED-DD (human) (UniProt Q13158)
Chain of FADD_DED-DD (human) (Q13158 whole entry): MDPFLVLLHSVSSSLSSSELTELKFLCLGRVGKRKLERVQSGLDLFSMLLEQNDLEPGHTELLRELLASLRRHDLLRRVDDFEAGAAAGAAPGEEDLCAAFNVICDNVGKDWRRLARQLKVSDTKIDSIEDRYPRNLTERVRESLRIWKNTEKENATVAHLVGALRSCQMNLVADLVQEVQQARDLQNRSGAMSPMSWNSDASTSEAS

CASP2_CARD (human) = CASP2_CARD (human) (UniProt P42575)
Chain of CASP2_CARD (human) (P42575 32-121): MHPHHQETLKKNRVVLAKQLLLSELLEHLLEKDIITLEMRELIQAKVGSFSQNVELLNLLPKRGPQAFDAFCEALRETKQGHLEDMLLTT

PYDC2_PYD (human) = PYDC2_PYD (human) (UniProt Q56P42)
Chain of PYDC2_PYD (human) (Q56P42 whole entry): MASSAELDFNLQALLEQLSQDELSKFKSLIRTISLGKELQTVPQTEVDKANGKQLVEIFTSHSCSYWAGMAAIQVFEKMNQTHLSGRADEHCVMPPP

CFLAR_DED1-DED2 (human) = CFLAR_DED1-DED2 (human) (UniProt O15519)
TRADD_DD (human) = TRADD_DD (human) (UniProt Q15628)
Chain of TRADD_DD (human) (Q15628 179-289): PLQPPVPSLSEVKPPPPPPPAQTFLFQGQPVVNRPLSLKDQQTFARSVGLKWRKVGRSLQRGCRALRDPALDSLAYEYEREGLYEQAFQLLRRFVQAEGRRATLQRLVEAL

CASP10_DED1-DED2 (human) = CASP10_DED1-DED2 (human) (UniProt Q92851)
CASP8_DED1-DED2 (human) = CASP8_DED1-DED2 (human) (UniProt Q14790)
RIPK1_DD (human) = RIPK1_DD (human) (UniProt Q13546)
Chain of RIPK1_DD (human) (Q13546 583-669): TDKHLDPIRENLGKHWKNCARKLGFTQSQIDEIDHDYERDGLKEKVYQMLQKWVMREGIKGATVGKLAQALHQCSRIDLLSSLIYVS

TNFRSF1A_DD (human) = TNFRSF1A_DD (human) (UniProt P19438)
Chain of TNFRSF1A_DD (human) (P19438 356-441): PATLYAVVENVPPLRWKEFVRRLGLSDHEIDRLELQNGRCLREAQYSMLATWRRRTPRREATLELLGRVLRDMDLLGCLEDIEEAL

CASP8_DED1 (human) = CASP8_DED1 (human) (UniProt Q14790)
DAPK1_DD (human) = DAPK1_DD (human) (UniProt P53355)
Chain of DAPK1_DD (human) (P53355 1312-1396): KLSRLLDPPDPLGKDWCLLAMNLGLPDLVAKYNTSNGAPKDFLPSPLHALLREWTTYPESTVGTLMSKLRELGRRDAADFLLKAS

Chain of NLRC4_CARD (human) (Q9NPP4 1-88): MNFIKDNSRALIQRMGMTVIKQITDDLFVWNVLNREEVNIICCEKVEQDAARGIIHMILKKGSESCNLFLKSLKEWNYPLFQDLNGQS
Chain of CASP1_CARD (human) (P29466 1-91): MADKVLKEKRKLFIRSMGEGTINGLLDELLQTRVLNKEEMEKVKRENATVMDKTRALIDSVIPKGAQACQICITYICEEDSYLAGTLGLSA
Chain of CASP1_CARD (P29466 1-91): as above
Chain of CRADD_CARD-DD (P78560 whole entry, the tested form may be a part): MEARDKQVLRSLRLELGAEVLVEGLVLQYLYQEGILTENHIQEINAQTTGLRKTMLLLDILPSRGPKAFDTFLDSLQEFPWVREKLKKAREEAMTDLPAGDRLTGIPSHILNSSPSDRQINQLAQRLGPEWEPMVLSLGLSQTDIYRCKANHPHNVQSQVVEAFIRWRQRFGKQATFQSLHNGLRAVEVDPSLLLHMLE
Chain of FADD_DED-DD (Q13158 whole entry, the tested form may be a part): as the sequence (Q13158 whole entry) above

ASC_PYD-CARD (from UniProt Q9ULZ3 1-195) (domain or fragment)
ALPHA signal (RLU) (CASP1_CARD (human)): 1730 RLU | ALPHA signal (RLU) (NLRC4_CARD (human)): 1690 RLU

CASP1_CARD (from UniProt P29466 1-91) (domain or fragment)
ALPHA signal (RLU) (ASC_PYD-CARD (human)): 4880 RLU

CASP8_DED1 (from UniProt Q14790 2-80) (domain or fragment)
ALPHA signal (RLU) (IRAK3_DD (human)): 968 RLU

CASP8_DED1-DED2 (from UniProt Q14790 1-177) (domain or fragment)
ALPHA signal (RLU) (FADD_DED-DD (human)): 9380 RLU

CASP10_DED1-DED2 (from UniProt Q92851 19-187) (domain or fragment)
ALPHA signal (RLU) (FADD_DED-DD (human)): 10200 RLU

CRADD_CARD-DD (from UniProt P78560 1-199) (domain or fragment)
ALPHA signal (RLU) (CASP2_CARD (human)): 2420 RLU

DAPK1_DD (from UniProt P53355 1312-1396) (domain or fragment)
ALPHA signal (RLU) (PYDC2_PYD (human)): 3540 RLU

FADD_DED-DD (from UniProt Q13158 1-208) (domain or fragment)
ALPHA signal (RLU) (CFLAR_DED1-DED2 (human)): 20100 RLU | ALPHA signal (RLU) (TRADD_DD (human)): 39600 RLU | ALPHA signal (RLU) (CASP10_DED1-DED2 (human)): 20700 RLU | ALPHA signal (RLU) (CASP8_DED1-DED2 (human)): 11000 RLU | ALPHA signal (RLU) (RIPK1_DD (human)): 20000 RLU | ALPHA signal (RLU) (TNFRSF1A_DD (human)): 964 RLU

IRAK3_DD (from UniProt Q9Y616 1-596) (domain or fragment)
ALPHA signal (RLU) (CASP8_DED1 (human)): 1350 RLU

PYDC2_PYD (from UniProt Q56P42 1-97) (domain or fragment)
ALPHA signal (RLU) (DAPK1_DD (human)): 970 RLU

RIPK1_DD (from UniProt Q13546 583-669) (domain or fragment)
ALPHA signal (RLU) (FADD_DED-DD (human)): 30600 RLU

TNFRSF1A_DD (from UniProt P19438 356-441) (domain or fragment)
ALPHA signal (RLU) (FADD_DED-DD (human)): 5570 RLU

TRADD_DD (from UniProt Q15628 179-289) (domain or fragment)
ALPHA signal (RLU) (FADD_DED-DD (human)): 31700 RLU
